Reference: US20050232926A1, “Antibodies specific for cancer associated antigen SM5-1 and uses thereof” (Oncomax Acquisition Corp., priority 2003, published 2005)

Columns and labels:
QYC cells = assay: Antibody-dependent cell mediated cytotoxicity (ADCC); format: cell-based, human; settings: PBL effector to target ratio 20:1, 7 h, FIG. 7
Protocol: Venous blood was taken sterilely from healthy donor and put into sterile 15 ml centrifuge tube containing 20 U/ml heparin. The solution was carefully mixed and equal volume of sterilized PBS was added to dilute the blood.
In a 15 ml centrifuge tube, 6 ml room temperature pre-warmed 100% lymphocytes isolation fluid (obtained from CACS, Cellular Biology Institute) was added. Along the tube wall of the tilted tube, 6 ml diluted anti-coagulation peripheral blood was added slowly into the tube without damaging the interface.
The tube was centrifuged at 20° C., 800 g for 30 min with brake turned off. After the centrifuge, three layers were formed. The three layers (from above to the bottom) were blood plasma layer, cell separation liquid layer, red and granular cell layer. A white frosted glass-like layer between the plasma layer and cell separation liquid layer was the layer containing lymphocytes and mononuclear cells. This white layer was taken out using a pipette and put into another 15 ml sterile centrifuge tube. PBS was added into the centrifuge tube to dilute the PBL suspension and then centrifuged at 200 g for 5 min. The pellet was washed 2 times with PBS. […]
QYC cells at the logistically growing stage were taken out from incubator. […] Cells were counted, and the concentration was adjusted to 3×10^5/ml. […]
Cytotoxicity Detection Kit by Roche's Corporation was used. […] OD was read at 490 nm.

SM5-1 antigen [1] = assay: Affinity determination with BIAcore; format: binding, human
[2] = test system: hepatocelluer carcinoma cell line QYC; assay: Antigen binding activity by FCM; parameters: species or system human; settings: compared with chSM5-1
Protocol: The humanized VL and VH were cloned into pMG18-3K expression vector and was expressed transiently in COS cells, yielding humanized version. Humanized antibody in COS cell culture supernatant was quantitated by ELISA and the binding of this version to hepatocelluer carcinoma cell line QYC was determined by FCM. […] The important FR residues that may have influences on binding activity were analyzed and the backmutation assay was carried out. […] The humanized version was designated as ReSM5-1 and its amino acid sequence and nucleotide sequence of both the heavy chain and the light chain shown in Table 3 below.

[3] = target: human SM5-1 antigen (human); assay: BIAcore (SPR), method of Karlsson et al.; antigen preparation and format not stated
SM5-1 antigen [4] = assay: Competition binding assay

Row | Molecule | anti-neoplasm effect via ADCC (QYC cells) | Kd (SM5-1 antigen [1]) [nM] | antigen binding activity [2] | Kd [3] [nM] | avidity (SM5-1 antigen [4])
1 | humanized anti-SM5-1 antibody (ReSM5-1) (antibody, V domains shown) VH: QVQLVQSGGGVVQPGRSLRLSCKASGYTFTSYVMHWVRQAPGKGLEWIGYIVPYNDGTKYNEKFKGRFTISSDKSKSTAFLQMDSLRPEDTAVYYCARGSRYDWYLDYWGQGTPVTVSS VL: NIMMTQSPSSLSASVGDRVTITCKSSQSVLYSSNQKNYLAWYQQTPGKAPKLLIYWASTRESGVPSRFSGSGSGTDYTFTISSLQPEDIATYYCHQYFSSYTFGQGTKLQITR | induced the apoptosis and inhibit the growth of tumor cells through ADCC pathway | 9.31 | same antigen binding activity as chSM5-1 | 9.31 | equivalent avidity as the murine SM5-1 or chimeric SM5-1 antibody
2 | chSM5-1: mouse-human chimeric antibody with mSM5-1 variable regions (SEQ ID NO:3, 4) and human constant regions (antibody, V domains shown, human constant regions; Mus Musculus) VH: EVQLQQSGPELVKPGASVKMSCKASGYTFTSYVMHWVKQKPGQGLDWIGYIVPYNDGTKYNEKFKGKATLTSDKSSSTAYMELSRLTSEDSAVYYCVYGSRYDWYLDVWGAGTTVTVSS VL: NIMMTQSPSSLAVSAGEKVTMSCKSSQSVLYSSNQKNYLAWYQQKPGQSPKLLIYWASTRESGVPDRFTGSGSGTDFTLTISSVQAEDLAVYYCHQYFSSYTFGGGTKLEIKR | induced the apoptosis and inhibit the growth of tumor cells through ADCC pathway | 3.78 | – | – | –
